Source: patent US20160108110A1 (Novartis, published 2016)

B1: MOR021795 (antibody, human IgG1, lambda, V domains shown)
VH: QVQLVQSGAEVKKPGSSVKVSCKASGGTFNSYAISWVRQAPGQGLEWMGGIIPLFGFANYAQKFQGRVTITADESTSTAYMELSSLRSEDTAVYYCARESYDPYAFDVWGQGTLVTVSS
VL: DIELTQPPSVSVSPGQTASITCSGDNLGKYSASWYQQKPGQAPVLVIHQDNNRPSGIPERFSGSNSGNTATLTISGTQAEDEADYYCASRAHSMHVVFGGGTKLTVLG
notes: human IgG1
B2: MOR021823 (antibody, human IgG1, kappa, V domains shown)
VH: QVQLLESGGGLVQPGGSLRLSCAASGFTFSSYYLHWVRQAPGKGLEWVSYISGDGSSTYYADSVKGRFTISRDNSKNTLYLQMNSLRAEDTAVYYCARERSYAHDHWGQGTLVTVSS
VL: DIQMTQSPSSLSASVGDRVTITCRASQDIYIDLNWYQQKPGKAPKLLIYAASKLQSGVPSRFSGSGSGTDFTLTISSLQPEDFATYYCQQGYFLPQTFGQGTKVEIKR
notes: human IgG1
B3: MOR021830 (antibody, human IgG1, kappa, V domains shown)
VH: QVQLLESGGGLVQPGGSLRLSCAASGFTFSSYWMHWVRQAPGKGLEWVSGISYDGSSTNYADSVKGRFTISRDNSKNTLYLQMNSLRAEDTAVYYCARDSYIYDLHWGFDNWGQGTLVTVSS
VL: DIQMTQSPSSLSASVGDRVTITCRASQDISSYLNWYQQKPGKAPKLLIYAASRLQSGVPSRFSGSGSGTDFTLTISSLQPEDFATYYCQQSYTHPYTFGQGTKVEIKR
notes: human IgG1
B4: MOR021800 (antibody, human IgG1, lambda, V domains shown)
VH: QVQLVQSGAEVKKPGESLKISCKGSGYSFSTYWISWVRQMPGKGLEWMGIIDPSNSDTRYSPSFQGQVTISADKSISTAYLQWSSLKASDTAMYYCARVYGYVYMDVWGQGTLVTVSS
VL: DIELTQPPSVSVSPGQTASITCSGDNLGKKYAYWYQQKPGQAPVLVIYDKTKRPSGIPERFSGSNSGNTATLTISGTQAEDEADYYCASYDWYSSSYVFGGGTKLTVLG
notes: human IgG1

Key:
[1] = target: T1, Human ANGPTL4(26-406)-FLAG-His6-Avi (human, UniProt Q9BY76 24-406, biotin on the C-terminal Avi tag in the biotinylated preparations (immobilised form in SET, ELISA and Octet)); experiment: SET assay (solution equilibrium titration, MSD), IgG
T1 construct: also called full-length human ANGPTL4; hANGPTL4
T1 sequence: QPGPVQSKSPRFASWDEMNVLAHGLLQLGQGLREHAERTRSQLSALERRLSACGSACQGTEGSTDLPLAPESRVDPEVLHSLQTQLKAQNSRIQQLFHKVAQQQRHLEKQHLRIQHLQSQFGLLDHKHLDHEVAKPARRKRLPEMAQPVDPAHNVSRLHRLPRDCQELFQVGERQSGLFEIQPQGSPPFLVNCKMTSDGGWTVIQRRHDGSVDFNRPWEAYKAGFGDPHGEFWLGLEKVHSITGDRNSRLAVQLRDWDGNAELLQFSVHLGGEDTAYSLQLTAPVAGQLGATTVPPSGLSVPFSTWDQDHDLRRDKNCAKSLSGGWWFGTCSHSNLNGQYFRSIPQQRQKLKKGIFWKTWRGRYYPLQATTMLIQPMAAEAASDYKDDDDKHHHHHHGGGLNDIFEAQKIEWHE
Protocol: SET assays were performed as follows. In a 96-well polypropylene plate, a constant concentration of ANGPTL4 antibody was mixed with different concentrations of non-biotinylated human, cyno, mouse, or rat full-length ANPGLT4 protein, or human ANGPTL4 N-terminal domain protein (5-fold serial dilution) and incubated at 22° C. for 14 hours with constant shaking (300 rpm). On a pre-blocked 384-well streptavidin-coated Meso Scale Discovery (MSD) plate biotinylated ANGPTL4 (full-length human, cyno, mouse, or rat ANGPTL4, or human ANGPTL4 N-terminal domain) protein (1 nM, 15 μL per well) was immobilized and washed thereafter.
The equilibrium binding reactions (15 μL per well) were applied to the MSD plate with immobilized ANGPTL4 and incubated for 20 min at 22° C. The unbound material was removed by washing the plate 3 times with wash buffer, and the captured antibody was detected by adding Sulfo-tagged goat anti-human IgG (Meso Scale Discovery). After washing MSD read buffer T was added and the plate was developed using a Sector Imager 6000 (Meso Scale Discovery). The data were transferred to Microsoft Excel for analysis and plotted using GraphPad Prism v6. The KD values were determined by fitting the data to the following equation: […]
where Bₘₐₓ is the signal when no ANGPTL4 protein is present in solution, CAb is the constant concentration of ANGPTL4 antibody in solution, CAg is the concentration of ANGPTL4 in solution, and KD is the equilibrium dissociation constant.

[2] = target: T2, Human ANGPTL3(17-460)-FLAG-His-Avi (human, UniProt Q9Y5C1 17-460, biotin on the C-terminal Avi tag); experiment: direct ELISA on streptavidin-coated MSD plate: biotinylated antigen immobilised at 1 nM, antibody at 1 nM, detection with Sulfo-tagged goat anti-human IgG
T2 construct: also called full length human ANGPTL3; hANGPTL3
T2 sequence: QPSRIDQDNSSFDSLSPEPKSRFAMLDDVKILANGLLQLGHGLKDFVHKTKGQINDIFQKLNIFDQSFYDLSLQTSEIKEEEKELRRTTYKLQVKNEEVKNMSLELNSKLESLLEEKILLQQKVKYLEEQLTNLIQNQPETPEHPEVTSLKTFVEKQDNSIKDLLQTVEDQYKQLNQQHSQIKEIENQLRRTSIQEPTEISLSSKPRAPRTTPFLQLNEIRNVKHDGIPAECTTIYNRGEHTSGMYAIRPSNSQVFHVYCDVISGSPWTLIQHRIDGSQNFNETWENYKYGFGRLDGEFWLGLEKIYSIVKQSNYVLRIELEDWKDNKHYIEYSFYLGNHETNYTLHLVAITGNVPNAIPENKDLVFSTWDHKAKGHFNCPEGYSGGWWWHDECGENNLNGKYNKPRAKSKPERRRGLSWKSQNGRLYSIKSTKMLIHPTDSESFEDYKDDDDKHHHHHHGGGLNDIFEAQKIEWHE
Protocol: Direct ELISA assays were conducted to characterize antibody binding specificity of selected antibodies of the invention. The assay was performed as follows. A 384-well streptavidin-coated Meso Scale Discovery (MSD) plate was blocked by incubating the plate with 50 μL Blocking Buffer (PBS, pH 7.4, 5% w/v bovine serum albumin) per well at 22° C. for 1 hour with constant shaking (600 rpm). The blocked MSD plate was then washed 3 times with Wash Buffer (PBS, pH 7.4 and 0.05% v/v Tween-20) using a plate washer (BioTek). Following washing, biotinylated human ANGPTL4 proteins diluted in Assay Buffer (PBS, pH 7.4 without CaCl₂ or MgCl₂, 0.5% w/v fatty acid-free bovine serum albumin and 0.02% v/v Tween-20) were immobilized on the surface by incubation at 1 nM concentration (15 μL per well) at 22° C. for one hour: full length human ANGPTL4 (hANGPTL4), human ANGPTL4 coiled-coil domain (hANGPTL4-CCD) and full length human ANGPTL3 (hANGPTL3). The plate was then washed 3 times as described earlier. Antibody diluted to 1 nM concentration in Assay Buffer was then applied to the MSD plate […], and the plate was incubated for 1 hour at 22° C. with constant shaking (600 rpm). Bound antibodies were detected by adding 15 μL per well of a 1:500 dilution of Sulfo-tagged goat anti-human IgG. The plate was then incubated for one hour with constant shaking (600 rpm). The plate was washed 3 times, and then 15 μL/well of 1×MSD read buffer T was added and the plate was developed using a Sector Imager 6000 (Meso Scale Discovery). The data were transferred to Microsoft Excel for analysis and plotted using GraphPad Prism v6. […] An ANGPTL3-specific reference antibody was used as a positive control for the ANGPTL3 binding assay (FIG. 2).

[3] = target: T1, Human ANGPTL4(26-406)-FLAG-His6-Avi; experiment: ForteBio Octet, biotinylated antigen on streptavidin sensor, antibody in solution
Protocol: Dissociation constants (KD) were determined for selected antibodies of the invention by using an Octet (ForteBio) kinetic binding assay. ForteBio 10× Kinetics Buffer (ForteBio, catalog number 18-5032) was diluted 10-fold with DPBS (Life Technologies, catalog number 14190-136), and the resulting solution was added (0.2 ml per well) to a 96-well plate (Greiner, catalog number 65520). Streptavidin sensors (ForteBio, catalog number 18-5020) were immersed in the solution and equilibrated for at least 10 min at room temperature. In a second 96-well plate (Greiner, catalog number 65520), sensors were washed in 1× Kinetics buffer, and then immersed in 200 ul of 25 nM biotinylated human ANGPTL4 or a biotinylated reference protein (for background substraction) for 1000 sec […] at room temperature. The sensors were then washed in 1× Kinetics buffer for 120 sec, and immersed in 200 ul of ANGPTL4 antibody diluted in 1× Kinetics buffer at various concentrations (serial 2-fold dilutions ranging from 25 nM to 0.4 nM), and antibody association was monitored for 480 seconds. The sensors were then transferred to a well containing 200 ul 1× Kinetics buffer, and antibody dissociation was monitored for 1200 seconds. Background-corrected association and dissociation curves were globally fitted by Octet Software (ForteBio) to generate association (kₒₙ) and dissociation (koff) rate constants, which in turn were used to calculate equilibrium dissociation constants (KD).

[4] = target: T1, Human ANGPTL4(26-406)-FLAG-His6-Avi; experiment: cell-based or functional assay
[5] = target: T1, Human ANGPTL4(26-406)-FLAG-His6-Avi; experiment: cell-based or functional assay; remark: listed apart in the source
[6] = target: T1, Human ANGPTL4(26-406)-FLAG-His6-Avi; experiment: cell-based or functional assay; remark: listed apart in the source

Row | Binder | Kd [1] | binding result [2] | Kd [3] | koff [3] | kon [3] | Reversal of human ANGPTL4 inhibition of human LPL EC50 [4] | EC50 (read off the curve) [1(E] [5] | EC50 (read off the curve) [1(F] [5] | EC50 (read off the curve) [1(D] [6]
1 | B1 | 0.036 nM | no binding (tested: 1 nM) | 0.304 nM | 7.4e-05 s⁻¹ | 240000 M⁻¹ s⁻¹ | 12 nM |  |  | 
2 | B2 | 0.009 nM | no binding (tested: 1 nM) | 0.047 nM | 2.5e-05 s⁻¹ | 530000 M⁻¹ s⁻¹ | 1 nM | ~0.5 nM |  | 
3 | B3 | 0.026 nM | no binding (tested: 1 nM) | 0.069 nM | 1.5e-05 s⁻¹ | 210000 M⁻¹ s⁻¹ | 4 nM |  | ~1 nM | 
4 | B4 | 0.017 nM | no binding (tested: 1 nM) | 0.134 nM | 5.6e-05 s⁻¹ | 420000 M⁻¹ s⁻¹ | 1 nM |  |  | ~0.5 nM
